Assay results reported in article doi:10.1101/2021.04.21.440798 (bioRxiv, 2021).

Target: GFP-T6BP (TAX1BP1 / TRAF6-Binding Protein fused to GFP) (UniProt Q86VP1 1-789)
Test: co-IP

GFP-T6BP (TAX1BP1 / TRAF6-Binding Protein fused to GFP), sequence (Q86VP1 whole entry, the tested form may be a part): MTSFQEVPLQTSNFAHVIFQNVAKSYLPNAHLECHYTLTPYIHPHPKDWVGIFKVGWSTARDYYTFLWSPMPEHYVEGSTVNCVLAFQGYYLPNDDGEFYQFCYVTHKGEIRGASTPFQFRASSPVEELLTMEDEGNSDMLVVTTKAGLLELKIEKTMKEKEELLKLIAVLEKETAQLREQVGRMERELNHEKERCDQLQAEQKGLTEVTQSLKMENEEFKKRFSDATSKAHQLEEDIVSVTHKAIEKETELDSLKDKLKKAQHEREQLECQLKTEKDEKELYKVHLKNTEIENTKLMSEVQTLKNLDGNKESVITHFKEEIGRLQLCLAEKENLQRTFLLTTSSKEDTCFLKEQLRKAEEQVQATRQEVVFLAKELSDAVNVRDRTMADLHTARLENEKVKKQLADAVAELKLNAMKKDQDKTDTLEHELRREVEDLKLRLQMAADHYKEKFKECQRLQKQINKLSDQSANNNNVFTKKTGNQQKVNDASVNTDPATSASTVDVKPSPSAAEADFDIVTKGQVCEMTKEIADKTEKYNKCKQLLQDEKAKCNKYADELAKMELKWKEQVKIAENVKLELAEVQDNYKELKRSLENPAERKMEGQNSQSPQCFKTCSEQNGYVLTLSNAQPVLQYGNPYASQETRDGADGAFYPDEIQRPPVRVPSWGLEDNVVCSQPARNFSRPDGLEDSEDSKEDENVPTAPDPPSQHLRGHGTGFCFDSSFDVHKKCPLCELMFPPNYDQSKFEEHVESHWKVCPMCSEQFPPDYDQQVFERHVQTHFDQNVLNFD

B1: Calnexin (CANX), endogenous (natural protein)
chain: HDGHDDDVIDIEDDLDDVIEEVEDSKPDTTAPPSSPKVTYKAPVPTGEVYFADSFDRGTLSGWILSKAKKDDTDDEIAKYDGKWEVEEMKESKLPGDKGLVLMSRAKHHAISAKLNKPFLFDTKPLIVQYEVNFQNGIECGGAYVKLLSKTPELNLDQFHDKTPYTIMFGPDKCGEDYKLHFIFRHKNPKTGIYEEKHAKRPDADLKTYFTDKKTHLYTLILNPDNSFEILVDQSVVNSGNLLNDMTPPVNPSREIEDPEDRKPEDWDERPKIPDPEAVKPDDWDEDAPAKIPDEEATKPEGWLDDEPEYVPDPDAEKPEDWDEDMDGEWEAPQIANPRCESAPGCGVWQRPVIDNPNYKGKWKPPMIDNPSYQGIWKPRKIPNPDFFEDLEPFRMTPFSAIGLELWSMTSDIFFDNFIICADRRIVDDWANDGWGLKKAADGAAEPGVVGQMIEAAEERPWLWVVYILTVALPVFLVILFCCSGKKQTSGMEYKKTDAPQPDVKEEEEEKEEEKDKGDEEEEGEEKLEEKQKSDAEEDGGTVSQEEEDRKPKAEEDEILNRSPRNRKPRRE
  fold enrichment over the GFP control: 3 fold
